# Reference: patent US8771694 (IMMUNOMEDICS, dated 2014)
# Residue numbers refer to the chain shown, from its start.
# B1: humanized LL2 version 1 (antibody, human IgG1, V domains shown)
# VH: QVQLQQSGAEVKKPGSSVKVSCKASGYTFTSYWLHWVRQAPGQGLEWIGYINPRNDYTEYNQNFKDKATITADESTNTAYMELSSLRSEDTAFYFCARRDITTFYWGQGTTVTVSS
# VL: DIQLTQSPSSLSASVGDRVTMSCKSSQSVLYSANHKNYLAWYQQKPGKAPKLLIYWASTRESGVPSRFSGSGSGTDFTFTISSLQPEDIATYYCHQYLSSWTFGGGTKVQIKR
# notes: VH has Q at Kabat position 5; also called hLL2-1; hLL2 with seven murine FR residues in the VH domain
# B2: humanized LL2 version 2 (antibody, human IgG1, V domains shown)
# VH: B1 VH with Q5V
# VL: B1 VL
# notes: VH has V at Kabat position 5; also called hLL2-2; hLL2
# Target: T1, CD22 (LL2 antigen on the surface of Raji cells) (UniProt P20273 20-847, limits assumed)
# T1 construct: whole, on cells; All assays used whole Raji cells; also called Raji cell surface antigen; B-lymphoma cells
# T1 sequence (looked up): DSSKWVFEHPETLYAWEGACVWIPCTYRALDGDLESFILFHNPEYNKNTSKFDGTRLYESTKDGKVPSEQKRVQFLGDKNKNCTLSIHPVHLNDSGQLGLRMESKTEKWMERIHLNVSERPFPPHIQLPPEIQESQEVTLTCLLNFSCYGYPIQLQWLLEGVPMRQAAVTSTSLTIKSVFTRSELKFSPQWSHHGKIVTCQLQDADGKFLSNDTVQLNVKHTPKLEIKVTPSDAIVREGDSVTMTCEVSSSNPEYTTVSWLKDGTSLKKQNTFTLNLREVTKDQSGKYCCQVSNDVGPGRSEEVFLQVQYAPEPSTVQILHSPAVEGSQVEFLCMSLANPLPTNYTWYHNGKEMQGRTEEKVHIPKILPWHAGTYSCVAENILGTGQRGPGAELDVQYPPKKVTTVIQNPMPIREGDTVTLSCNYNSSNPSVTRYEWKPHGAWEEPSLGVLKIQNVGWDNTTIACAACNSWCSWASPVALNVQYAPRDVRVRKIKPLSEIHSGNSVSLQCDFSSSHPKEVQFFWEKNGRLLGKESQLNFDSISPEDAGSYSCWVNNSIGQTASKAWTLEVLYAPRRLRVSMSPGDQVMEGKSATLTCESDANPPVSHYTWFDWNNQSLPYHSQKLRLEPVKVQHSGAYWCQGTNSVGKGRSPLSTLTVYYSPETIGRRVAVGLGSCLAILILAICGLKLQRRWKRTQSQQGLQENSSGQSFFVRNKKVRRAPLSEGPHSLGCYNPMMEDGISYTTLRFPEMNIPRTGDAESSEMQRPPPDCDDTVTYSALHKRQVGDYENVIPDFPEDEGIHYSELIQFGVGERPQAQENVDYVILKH
# Test: competition flow cytometry on Raji cells, competitor mLL2 F(ab')2
# Method: The Raji cell surface antigen binding affinities of mix-and-match and fully humanized antibodies can be compared to that of cLL2 using various concentrations of mLL2 F(ab')_2 fragments devoid of the Fc portion as competitors, as evaluated by flow cytometry assay. Residual surface-bound LL2 antibodies carrying the human Fc portions (cLL2 and mix-and-match LL2) can be detected by a FITC-labeled anti-human Fc specific antibody in a flow cytometry assay.
# Briefly, 1 µg of cLL2, mix-and-match LL2, hLL2-1 or hLL2-2 antibodies were incubated with […] Raji cells in the presence of varying concentrations of mLL2 F(ab')_2 fragments (as competitor) in a final volume of 100 µl of PBS buffer supplemented with 1% FCS and 0.01% sodium azide. The mixture was incubated for 30 minutes at 4° C., and washed three times with PBS to remove unbound antibodies. By taking advantage of the presence of human Fc portions in the antibodies, the binding levels of the antibodies were assessed by adding a 20×diluted FITC-labeled goat anti-human IgG1, Fc fragment-specific antibodies (Jackson ImmunoResearch, West Grove, Pa.). The cells were washed three times with PBS, and fluorescence intensities measured by a FACSCAN fluorescence activated cell sorter (Becton-Dickinson, Bedford, Mass.).
row,Binder,binding result
1,B1,binds
2,B2,binds
